This is an account of results in patent publication US20100166741A1 (Genentech, published 2010).

Assay [1] concerns the target T1, miniBR3 displayed on M13 phage (epitope-tagged, fused to gene-8 major coat protein) (human; bacteriophage M13, UniProt Q96RJ3 17-42).
T1 construct: range 17-42; also called p-miniBR3
Description: shotgun Ala scan, miniBR3 phage.
Description: Each “partial miniBR3” template was used as the template for Kunkel mutagenesis with mutagenic oligonucleotides designed to replace the template stop codons with the complementary region of miniBR3, while simultaneously introducing mutations at the desired sites. At the sites of mutation, wild-type codons were replaced with the corresponding shotgun alanine codon (Weiss, supra). Each of these two libraries allowed for mutations at 11 residues in miniBR3 with no mutated positions in common between libraries. Library 1 encoded shotgun codons at positions 17, 18, 20-23, 25, 27, 28, 30, and 33, while library 2 encoded shotgun codons at positions 26, 29, 31, 34, and 36-42. Each library contained 2×10⁹ members, allowing for complete representation of the theoretical diversity (>10⁴-fold excess).
The display selection was included in order to normalize the anti-BR3 antibody-binding selection for expression differences between library members. Phage eluted from each target were propagated in E. coli XL1-blue; amplified phage were used for selection against the same target as in the previous round. After two rounds of selection, 48 individual clones from each library and selection were grown in a 96-well format in 400 L of 2YT medium supplemented with carbenicillin and KO7 helper phage.
F-values were calculated as previously described (Weiss, supra-, Gordon, supra). […] Deleterious mutations have ratios >1, while advantageous mutations have ratios <1; boldface indicates a >10-fold effect.

In assay [2] the target is T2, human FcγRI extracellular domain, His-tagged GST fusion (human, UniProt P12314 16-292).
T2 construct: extracellular domain; also called hFcgRI; FcγRIA; not shown: C-terminal Gly/His6/GST tag
Nature of the assay: ELISA, captured FcγR-GST, monomeric IgG. A general note: In an ELISA, binding on a coated surface is turned into a signal by an enzyme label.

Assay [3] deals with T3, human FcγRIIa extracellular domain, His-tagged GST fusion (human, UniProt P12318 34-217).
T3 construct: extracellular domain; also called hFcgRIIa; CD32A; not shown: C-terminal Gly/His6/GST tag
T3 sequence (looked up): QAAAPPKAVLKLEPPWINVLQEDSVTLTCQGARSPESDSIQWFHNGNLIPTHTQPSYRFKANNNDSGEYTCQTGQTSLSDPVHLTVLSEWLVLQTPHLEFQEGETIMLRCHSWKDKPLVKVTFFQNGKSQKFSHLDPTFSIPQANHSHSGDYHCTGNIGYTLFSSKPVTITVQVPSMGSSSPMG
Nature of the assay: ELISA, captured FcγR-GST, multimeric IgG.

The target of assay [4] is T4, human FcγRIIb extracellular domain, His-tagged GST fusion (human, UniProt P31994 43-217).
T4 construct: extracellular domain; also called hFcgRIIb; CD32B; not shown: C-terminal Gly/His6/GST tag
T4 sequence (looked up): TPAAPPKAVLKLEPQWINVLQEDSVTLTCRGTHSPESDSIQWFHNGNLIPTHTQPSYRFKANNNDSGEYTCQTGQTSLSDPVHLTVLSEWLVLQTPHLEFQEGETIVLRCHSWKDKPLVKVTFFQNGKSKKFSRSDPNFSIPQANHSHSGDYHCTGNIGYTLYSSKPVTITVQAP
Nature of the assay: ELISA, captured FcγR-GST, multimeric IgG.

B1: 2.1 (antibody, V domains shown)
VH: EVQLQESGPSLVKPSQTLSLTCSVTGDSITRGYWNWIRKFPGNKLEFMGYINYSGTTYYNPSLKSRISITRDTSKNQYYLQLNSVTTEDTATYYCATPHTYGAMDYWGQGTTLTVSA
VL: DIVLTQSPVSLAVSLGQRATISCRASESVDDYGISFMHWYQQKPGQPPKLLIYRASDLESGIPARFSGSGSGTDFTLTINPVETDDVAIYYCQQTSKDPWTFGGGT
notes: also called chimeric 2.1
For B1, in assay [1], the “F value, mutation at BR3 A22” value was determined as 3.2; the “F value, mutation at BR3 A34” value was 62; the “F value, mutation at BR3 D26” value was 6.1; the “F value, mutation at BR3 E23” value is 9.6. For the same molecule, in assay [1], the “F value, mutation at BR3 F25” value came to 49; the “F value, mutation at BR3 G36” value is 14; the “F value, mutation at BR3 H31” value is 0.6; the “F value, mutation at BR3 L27” value amounted to 0.8. Moreover, in assay [1], the “F value, mutation at BR3 L28” value was determined as 0.1; the “F value, mutation at BR3 L37” value was 0.1; the “F value, mutation at BR3 L38” value turned out to be 0.9; the “F value, mutation at BR3 P18” value is 0.5. In assay [1], the “F value, mutation at BR3 P21” value came out at 1.9; the “F value, mutation at BR3 P41” value was 0.7; the “F value, mutation at BR3 R30” value was 10; the “F value, mutation at BR3 R39” value amounted to 0.5. Further, in assay [1], the “F value, mutation at BR3 R42” value stood at 1.8; the “F value, mutation at BR3 T17” value is 0.6; the “F value, mutation at BR3 T40” value came to 0.2; the “F value, mutation at BR3 V20” value was found to be 3. Also, in assay [1], the “F value, mutation at BR3 V29” value was 0.5 and the “F value, mutation at BR3 V33” value turned out to be 10.

B2: Hu9.1RF IgG1 2% G0-F (antibody)
heavy: not shown
light: DIQMTQSPSSLSASVGDRVTITCKSSQSLLYSSNQNNYLAWYQQKPGKAPKLLIYWASTRESGVPSRFSGSGSGTDFTLTISSLQPEDFATYYCQQYYTYPYTFGQGTKVEIKRTVAAPSVFIFPPSDEQLKSGTASVVCLLNNFYPREAKVQWKVDNALQSGNSQESVTEQDSKDSTYSLSSTLTLSKADYEKHKVYACEVTHQGLSSPVTKSFNRGEC
modifications: 2% G0-F (afucosylated) Fc glycan content
notes: Same protein as Hu9.1RF IgG1; glycoform composition; also called 2% G0-F GLP-Hu9.1RF IgG1; 2% afucosylated Hu9.1RF IgG1
For orientation: EC50 means the concentration giving half of the maximal effect. Turning to B2, the figures for the EC50 in assay [2], in assay [3] and in assay [4] were 0.00392 µg/mL, 0.3 µg/mL and 0.96 µg/mL, respectively.

B3: Hu9.1RF IgG1 4% G0-F (antibody)
heavy: not shown
light: DIQMTQSPSSLSASVGDRVTITCKSSQSLLYSSNQNNYLAWYQQKPGKAPKLLIYWASTRESGVPSRFSGSGSGTDFTLTISSLQPEDFATYYCQQYYTYPYTFGQGTKVEIKRTVAAPSVFIFPPSDEQLKSGTASVVCLLNNFYPREAKVQWKVDNALQSGNSQESVTEQDSKDSTYSLSSTLTLSKADYEKHKVYACEVTHQGLSSPVTKSFNRGEC
modifications: expected 4% G0-F (determined 3%)
notes: Mixture of 37% G0-F and 2% G0-F Hu9.1RF IgG1
In the case of B3, the EC50 in assay [2] was 0.00373 µg/mL; in assay [3], 0.26 µg/mL; in assay [4], 0.95 µg/mL.

B4: Hu9.1RF IgG1 10% G0-F (antibody)
heavy: not shown
light: DIQMTQSPSSLSASVGDRVTITCKSSQSLLYSSNQNNYLAWYQQKPGKAPKLLIYWASTRESGVPSRFSGSGSGTDFTLTISSLQPEDFATYYCQQYYTYPYTFGQGTKVEIKRTVAAPSVFIFPPSDEQLKSGTASVVCLLNNFYPREAKVQWKVDNALQSGNSQESVTEQDSKDSTYSLSSTLTLSKADYEKHKVYACEVTHQGLSSPVTKSFNRGEC
modifications: expected 10% G0-F (determined 8%)
notes: as for B3
For B4, the EC50 in assay [2] was 0.00391 µg/mL; in assay [3], 0.24 µg/mL; in assay [4], 0.88 µg/mL.

B5: Hu9.1RF IgG1 6% G0-F (antibody)
heavy: not shown
light: DIQMTQSPSSLSASVGDRVTITCKSSQSLLYSSNQNNYLAWYQQKPGKAPKLLIYWASTRESGVPSRFSGSGSGTDFTLTISSLQPEDFATYYCQQYYTYPYTFGQGTKVEIKRTVAAPSVFIFPPSDEQLKSGTASVVCLLNNFYPREAKVQWKVDNALQSGNSQESVTEQDSKDSTYSLSSTLTLSKADYEKHKVYACEVTHQGLSSPVTKSFNRGEC
modifications: expected 6% G0-F (determined 6%)
notes: as for B3
Take B5: the EC50 in assay [2] was 0.00412 µg/mL; in assay [3], 0.23 µg/mL; in assay [4], 0.91 µg/mL.

B6: Hu9.1RF IgG1 20% G0-F (antibody)
heavy: not shown
light: DIQMTQSPSSLSASVGDRVTITCKSSQSLLYSSNQNNYLAWYQQKPGKAPKLLIYWASTRESGVPSRFSGSGSGTDFTLTISSLQPEDFATYYCQQYYTYPYTFGQGTKVEIKRTVAAPSVFIFPPSDEQLKSGTASVVCLLNNFYPREAKVQWKVDNALQSGNSQESVTEQDSKDSTYSLSSTLTLSKADYEKHKVYACEVTHQGLSSPVTKSFNRGEC
modifications: expected 20% G0-F (determined 23%)
notes: as for B3
For the molecule B6, the results for the EC50 in assay [2], in assay [3] and in assay [4] were 0.00374 µg/mL, 0.17 µg/mL and 0.82 µg/mL, respectively.

B7: 11G9 (antibody, V domains shown)
VH: DVQLQESGPSLVKPSQTLSLTCSVTGDSITSGYWNWIRKFPGNKLEYMGYISYSGSTYYNPSLKSRISITRDTSKNQFYLQLLSVTTEDTATYYCAGLDGLYWYFDVWGAGTLVTVSS
VL: DIVMTQTPLSLPVSLGDQASISCRSSQSLVHSNGNTYLHWYLQKPGQSPKLLIYKVSNRFSGVPDRFSGSGSGTDFTLKISRVEAEDLGVYFCSQSTHVPPFTFGSGT
notes: also called chimeric 11G9
With B7, in assay [1], the “F value, mutation at BR3 A22” value stood at 45; the “F value, mutation at BR3 A34” value was determined as 32; the “F value, mutation at BR3 D26” value turned out to be 8.5; the “F value, mutation at BR3 E23” value amounted to 6.9. Moreover, in assay [1], the “F value, mutation at BR3 F25” value worked out at 38; the “F value, mutation at BR3 G36” value amounted to 1.8; the “F value, mutation at BR3 H31” value is 2.8; the “F value, mutation at BR3 L27” value came out at 1.1. Also, in assay [1], the “F value, mutation at BR3 L28” value turned out to be 0.4; the “F value, mutation at BR3 L37” value is 0.7; the “F value, mutation at BR3 L38” value amounted to 0.9; the “F value, mutation at BR3 P18” value came to 0.5. In assay [1], the “F value, mutation at BR3 P21” value stood at 40; the “F value, mutation at BR3 P41” value was found to be 1.7; the “F value, mutation at BR3 R30” value worked out at 1.7; the “F value, mutation at BR3 R39” value was determined as 3.1. Moreover, in assay [1], the “F value, mutation at BR3 R42” value was determined as 0.9; the “F value, mutation at BR3 T17” value was 0.5; the “F value, mutation at BR3 T40” value was determined as 0.5; the “F value, mutation at BR3 V20” value came out at 1.1. In assay [1], the “F value, mutation at BR3 V29” value was determined as 1 and the “F value, mutation at BR3 V33” value is 24.

B8: V3-1 (antibody, V domains shown)
VH: EVQLVESGGGLVQPGGSLRLSCAASGFTISSNSIHWVRQAPGKGLEWVAWITPSDGNTDYADSVKGRFTISADTSKNTAYLQMNSLRAEDTAVYYCARRVCYNRLGVCAGGMDYWGQGTLVTVSS
VL: DIQMTQSPSSLSASVGDRVTITCRASQDVSTAVAWYQQKPGKAPKLLIYSASFLYSGVPSRFSGSGSGTDFTLTISSLQPEDFATYYCQQSRITPPTFGQGTKVEIKR
Regarding B8, in assay [1], the “F value, mutation at BR3 A22” value is 0.7; the “F value, mutation at BR3 A34” value worked out at 13; the “F value, mutation at BR3 D26” value was determined as 8.7; the “F value, mutation at BR3 E23” value was 2.4. In assay [1], the “F value, mutation at BR3 F25” value came to 21; the “F value, mutation at BR3 G36” value came to 0.7; the “F value, mutation at BR3 H31” value stood at 0.1; the “F value, mutation at BR3 L27” value was 1.4. In assay [1], the “F value, mutation at BR3 L28” value came out at 98; the “F value, mutation at BR3 L37” value was 0.7; the “F value, mutation at BR3 L38” value was 1.4; the “F value, mutation at BR3 P18” value turned out to be 0.8. Also, in assay [1], the “F value, mutation at BR3 P21” value came out at 0.6; the “F value, mutation at BR3 P41” value was 1.6; the “F value, mutation at BR3 R30” value amounted to 20; the “F value, mutation at BR3 R39” value came to 0.4. Further, in assay [1], the “F value, mutation at BR3 R42” value came out at 0.9; the “F value, mutation at BR3 T17” value was 0.5; the “F value, mutation at BR3 T40” value is 0.6; the “F value, mutation at BR3 V20” value was determined as 0.9. Besides, in assay [1], the “F value, mutation at BR3 V29” value came out at 92 and the “F value, mutation at BR3 V33” value is 14.
